Series [1] has as its target T1, yPolη truncated (catalytic core) (Saccharomyces cerevisiae, UniProt Q04049 1-513).
T1 sequence: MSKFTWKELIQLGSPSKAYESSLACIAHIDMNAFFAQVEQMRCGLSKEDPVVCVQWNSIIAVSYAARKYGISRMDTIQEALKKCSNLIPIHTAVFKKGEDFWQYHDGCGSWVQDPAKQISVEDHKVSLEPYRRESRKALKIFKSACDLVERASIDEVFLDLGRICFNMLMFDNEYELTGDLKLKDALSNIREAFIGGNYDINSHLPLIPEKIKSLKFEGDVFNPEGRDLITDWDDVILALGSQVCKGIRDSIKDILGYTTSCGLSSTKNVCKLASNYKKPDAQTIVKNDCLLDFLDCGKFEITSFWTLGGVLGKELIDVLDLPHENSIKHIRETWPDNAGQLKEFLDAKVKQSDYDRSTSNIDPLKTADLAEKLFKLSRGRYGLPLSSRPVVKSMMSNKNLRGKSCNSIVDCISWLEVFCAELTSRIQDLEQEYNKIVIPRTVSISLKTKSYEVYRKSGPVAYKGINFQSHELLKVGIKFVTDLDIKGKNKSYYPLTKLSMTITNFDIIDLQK
As to the kind of experiment: EMSA; koff 0.008 ± 0.001 s-1 (DNA trap); 23°C, buffer A (composition not in material; without BSA for fluorescence); EMSA 10 nM DNA, 10-450 nM protein, 20 min, 4.5% native gel, 40 mM Tris in running bu. (In general: Mobility shift assays separate free from complexed probe on a gel.)

The next series deals with T2, yPolη full-length (Saccharomyces cerevisiae, UniProt Q04049 1-632).
T2 sequence: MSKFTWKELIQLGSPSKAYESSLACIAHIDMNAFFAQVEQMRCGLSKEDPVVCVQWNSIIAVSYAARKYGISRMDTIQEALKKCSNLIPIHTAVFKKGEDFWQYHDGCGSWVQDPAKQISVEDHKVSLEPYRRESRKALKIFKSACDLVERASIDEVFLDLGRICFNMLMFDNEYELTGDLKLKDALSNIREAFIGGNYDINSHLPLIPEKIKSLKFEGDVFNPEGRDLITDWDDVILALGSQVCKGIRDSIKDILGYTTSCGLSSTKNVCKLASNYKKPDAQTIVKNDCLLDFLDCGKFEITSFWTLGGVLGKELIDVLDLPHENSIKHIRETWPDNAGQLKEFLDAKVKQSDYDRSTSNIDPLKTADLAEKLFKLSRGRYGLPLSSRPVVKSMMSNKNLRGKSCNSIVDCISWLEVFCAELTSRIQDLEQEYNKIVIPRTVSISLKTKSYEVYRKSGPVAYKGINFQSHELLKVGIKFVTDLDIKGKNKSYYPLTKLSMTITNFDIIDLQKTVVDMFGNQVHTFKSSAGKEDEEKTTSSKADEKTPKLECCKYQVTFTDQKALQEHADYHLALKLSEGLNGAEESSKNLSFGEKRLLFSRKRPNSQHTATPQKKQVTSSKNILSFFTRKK
The series can be described thus: EMSA; koff 0.0041 ± 0.0008 s-1 (DNA trap); 23°C, buffer A (composition not in material; without BSA for fluorescence); EMSA 10 nM DNA, 10-450 nM protein, 20 min, 4.5% native gel, 40 mM Tris in running bu.

B1: D-1 21/41-mer (dsDNA)
DNA 1: CGCAGCCGTCCAACCAACTCA
DNA 2: GGACGGCATTGGATCGACGATGAGTTGGTTGGACGGCTGCG
What is called Kd is a measure of binding affinity in units of concentration. As to B1, the Kd in series [1] turned out to be 34 ± 3 nM; in the series with yPolη full-length, 16 ± 1 nM.
